We go through two molecules from patent US20260085128A1 (BIOLEGEND, published 2026).

Test [1] deals with T1, human CD157 (human, UniProt Q10588 33-293).
T1 construct: Endogenous CD157 on human U-937 cells and on human blood monocytes and granulocytes; also called BST-1; bone marrow stromal cell antigen 1
T1 sequence: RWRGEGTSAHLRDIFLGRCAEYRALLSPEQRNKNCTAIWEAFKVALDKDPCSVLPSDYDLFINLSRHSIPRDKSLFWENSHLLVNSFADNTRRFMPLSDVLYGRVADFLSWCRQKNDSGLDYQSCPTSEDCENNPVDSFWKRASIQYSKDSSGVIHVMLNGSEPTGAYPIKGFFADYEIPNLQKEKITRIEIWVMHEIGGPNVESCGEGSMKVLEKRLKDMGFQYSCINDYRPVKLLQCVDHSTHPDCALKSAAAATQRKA
Kind of test: flow cytometry on U-937 cells, anti-rat IgG-PE secondary. The method, then: U-937 cells were grown in RPMI media supplemented with 10% FBS in T75 culture flask, to about 80% confluency. Various concentrations of exemplary generated anti-CD157 antibodies were added, including 2, 1, 0.5, 0.25, 0.125 and 0.06 μg, and allowed to incubate for 15 minutes. Cells were then washed twice with FACS wash buffer and stained with anti-rat IgG-PE secondary antibody for 15 minutes. Cells were washed with FACS buffer and analyzed on a BD LSRII flow cytometer.
Background: Flow cytometry measures light scatter and fluorescence of single cells or particles in a stream.

The target of test [2] is T1, human CD157. Kind of test: flow cytometry, summary sentence of Example 3.

B1: anti-CD157 monoclonal antibody AB1 (antibody, V domains shown)
VH: QVQLKESGPGLVQPSQTLSLTCTVSGFSLTSYHVSWVRQPPGKGLEWMGIIWTGGSTAYNSLLKSRLSISRDTSKSQVFLKMNSLQTEDTATYYCARSITPTFFDYWGQGVMVTVSS
VL: QFVLTQPNSVSTNLGSTVKLSCKRSTGNFGNNYVNWYQQHEGRSPTTMIYRDDKRPDGVPDRFSGSIDRSSNSALLTISNVQTEDEADYFCQSYSSGIVFGGGTKLTVL
notes: Hybridoma-derived monoclonal antibody; It was detected with an anti-rat IgG-PE secondary antibody; also called antibody 1; clone 1
Consider B1, for which the binding result with human CD157 [1] is listed as “binds”.

B2: anti-CD157 monoclonal antibody AB3 (antibody, V domains shown)
VH: EVHLVESGGGLVQPGRSLKLSCAASGFTFSNYDMAWIRQAPAKGLEWVASISIRGGSTYYRDSVKGRFTVSRDNAKSTLYLQMDSLRSEDTATYYCVRGTDYYYDYFDYWGQGVMVTVSS
VL: NIQMTQSPSLLSASVGDRVTLSCKAGRNINSYLAWYQQMLGEAPKLLIYNANSLQTGIPSRFSGSGSGTDYTLTISSLQPEDVATYFCQQYNSWTNTFGAGTKLELK
notes: Hybridoma-derived monoclonal antibody; It was detected with an anti-rat IgG-PE secondary antibody; also called antibody 3; clone 3
With B2, the binding result with human CD157 [2] is recorded as “binds”.
